The text below walks through data of publication PMC7895437.

The target of one test is golgin A3 (UniProt Q08378). As to the kind of experiment: anti-FLAG co-IP, golgin A3 Western blot. The following applies: reference: Cα L206R, vehicle; sites S114. (A western blot detects proteins with antibodies after separation by electrophoresis.)
Test [1] concerns the target PKA regulatory subunit IIβ, FLAG-tagged (RIIβ-FLAG) (human) (UniProt P31323). The test can be described thus: co-IP.
UniProt P31323, sequence (P31323 whole entry): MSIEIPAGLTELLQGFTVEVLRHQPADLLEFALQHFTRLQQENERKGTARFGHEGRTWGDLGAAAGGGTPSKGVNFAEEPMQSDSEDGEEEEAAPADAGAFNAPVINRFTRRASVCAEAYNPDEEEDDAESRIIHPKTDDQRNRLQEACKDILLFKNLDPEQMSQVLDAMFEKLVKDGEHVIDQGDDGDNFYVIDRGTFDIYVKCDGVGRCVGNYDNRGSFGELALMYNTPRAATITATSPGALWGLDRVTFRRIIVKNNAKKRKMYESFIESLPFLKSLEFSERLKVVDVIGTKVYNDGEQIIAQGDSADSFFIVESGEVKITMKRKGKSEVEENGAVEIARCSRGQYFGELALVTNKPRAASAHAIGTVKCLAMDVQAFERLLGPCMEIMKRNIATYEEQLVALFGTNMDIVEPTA

Regarding “RIIβ (PKA regulatory subunit IIβ) (from UniProt P31323) Cα L206R, 8-Br-cAMP”, the “other: densitometry, relative units” value with golgin A3 was “lost; reference 1.8 ± 0.2”. “golgin A3 (from UniProt Q08378 1-1498) (natural protein)” had a densitometry of golgin A3 co-precipitated with RIIβ-FLAG (WB) in test [1] of 1.8.
